Assays:
recombinant human TNFα [1] = target: T1, recombinant human TNFα (human, UniProt P01375 77-233, 125I-labeled in the receptor blocking assay); assay: competition radioligand assay: mAb in hybridoma supernatant preincubated with 5 ng/ml 125I-TNFα, then cpm bound to plate-coated p55-sf2 counted; blocked partner p55-sf2
T1 construct: It is not tied to the protein used in the assays, so it is not used here; also called huTNFα; tumor necrosis factor alpha
Experimental: Each sample was tested in duplicate. The results shown are representative of two independent experiments.
(§1) 50:1 of p55-sf2 at 0.5:g/ml in PBS was added to Optiplates to coat the wells during a one-hour incubation at 37° C. Serial dilutions of the eight TNV cell supernatants were prepared in 96-well round-bottom plates using PBS/0.1% BSA as diluent. […] The mixture was preincubated for one hour at RT. […] After 2 hrs at RT, Optiplates were washed three times with PBS-Tween. […] of Microscint-20 was added and the cpm bound determined using the TopCount […].

recombinant human TNFα [2] = target: T1, recombinant human TNFα; assay: cell-based or functional assay
recombinant human TNFα [3] = target: T1, recombinant human TNFα; assay: competition: 125I-TNFα binding to plate-coated p55-sf2, hybridoma supernatant
Experimental: as §1
The concentrations of the TNV mAbs in their respective cell supernatants were first determined by standard ELISA analysis for human IgG.

Row | IC50 (read off the curve) (recombinant human TNFα [1]) [ng/mL] | neutralizing TNFα bioactivity (recombinant human TNFα [2]) | fold better at blocking TNF binding (vs TNV118 and TNV14) (recombinant human TNFα [3]) [fold] | Binder
1 | ~4 |  |  | TNV15 (antibody, human IgG1, V domains shown, Totally human IgG1 kappa mAb from the GenTNV fusion, tested as hybridoma supernatant; also called GenTNV15.28.11; C415A) VH: QVQLVESGGGVVQPGRSLRLSCAASGFTFSSYAMHWVRQAPGKGLEWVAFILYDGSNKKYADSVKGRFTISRDNSKNALYLQMNSLRAEDTAVYYCARDRGVSAGGNYYYYGMDVWGQGTTVTVSS VL: EIVLTQSPATLSLSPGERATLSCRASQSVSSYLAWYQQKPGQAPRLLIYDASNRATGIPARFSGSGSGTDFTLTISSLEPEDFAVYYCQQRSNWPPFTFGPGTKVDIK
2 | ~4 | 4 fold (vs TNV14) |  | TNV196 (antibody, human IgG1, V domains shown, Totally human IgG1 kappa mAb from the GenTNV fusion, tested as hybridoma supernatant; also called GenTNV196.9.1; C421A) VH: QVQLVESGGGVVQPGRSLRLSCAASGFTFSSYAMHWVRQAPGKGLEWVAFISYDGSNKKSADSVKGRFTVSRDNSKNTLFLQMNSLRAEDTAVFYCARDRGIGAGGNYYYYGMDVWGQGTTVTVSS VL: EIVLTQSPATLSLSPGERATLSCRASQSVYSYLAWYQQKPGQAPRLLIYDASNRATGIPARFSGSGSGTDFTLTISSLEPEDFAVYYCQQRSNWPPFTFGPGTKVDIK
3 | ~4 | 4 fold (vs TNV14) | ~4 | TNV148 (antibody, V domains shown, also called GenTNV148.26.12; C420A) VH: QVQLVESGGGVVQPGRSLRLSCAASGFIFSSYAMHWVRQAPGNGLEWVAFMSYDGSNKKYADSVKGRFTISRDNPKNTLYLQMNSLRAEDTAVYYCARDRGIAAGGNYYYYGMDVWGQGTTVTVSS VL: EIVLTQSPATLSLSPGERATLSCRASQSVYSYLAWYQQKPGQAPRLLIYDASNRATGIPARFSGSGSGTDFTLTISSLEPEDFAVYYCQQRSNWPPFTFGPGTKVDIK
4 |  |  | ~4 | TNV86 (antibody, V domains shown, also called GenTNV86.14.34; C417A) VH: QVQLVESGGGVVQPGRSLRLSCAASGFIFSSYAMHWVRQAPGNGLEWVAFMSYDGSNKKYADSVKGRFTISRDNPKNTLYLQMNSLRAEDTAVYYCARDRGIAAGGNYYYYGMDVWGQGTTVTVSS VL: EIVLTQSPATLSLSPGERATLSCRASQSVYSYLAWYQQKPGQAPRLLIYDASNRATGIPARFSGSGSGTDFTLTISSLEPEDFAVYYCQQRSNWPPFTFGPGTKVDIK

Reference: US20220323580A1 (Janssen / Centocor, published 2022)
